Target: T1, GST-Patj (Drosophila, UniProt Q9NB04 1-871)
T1 sequence (looked up): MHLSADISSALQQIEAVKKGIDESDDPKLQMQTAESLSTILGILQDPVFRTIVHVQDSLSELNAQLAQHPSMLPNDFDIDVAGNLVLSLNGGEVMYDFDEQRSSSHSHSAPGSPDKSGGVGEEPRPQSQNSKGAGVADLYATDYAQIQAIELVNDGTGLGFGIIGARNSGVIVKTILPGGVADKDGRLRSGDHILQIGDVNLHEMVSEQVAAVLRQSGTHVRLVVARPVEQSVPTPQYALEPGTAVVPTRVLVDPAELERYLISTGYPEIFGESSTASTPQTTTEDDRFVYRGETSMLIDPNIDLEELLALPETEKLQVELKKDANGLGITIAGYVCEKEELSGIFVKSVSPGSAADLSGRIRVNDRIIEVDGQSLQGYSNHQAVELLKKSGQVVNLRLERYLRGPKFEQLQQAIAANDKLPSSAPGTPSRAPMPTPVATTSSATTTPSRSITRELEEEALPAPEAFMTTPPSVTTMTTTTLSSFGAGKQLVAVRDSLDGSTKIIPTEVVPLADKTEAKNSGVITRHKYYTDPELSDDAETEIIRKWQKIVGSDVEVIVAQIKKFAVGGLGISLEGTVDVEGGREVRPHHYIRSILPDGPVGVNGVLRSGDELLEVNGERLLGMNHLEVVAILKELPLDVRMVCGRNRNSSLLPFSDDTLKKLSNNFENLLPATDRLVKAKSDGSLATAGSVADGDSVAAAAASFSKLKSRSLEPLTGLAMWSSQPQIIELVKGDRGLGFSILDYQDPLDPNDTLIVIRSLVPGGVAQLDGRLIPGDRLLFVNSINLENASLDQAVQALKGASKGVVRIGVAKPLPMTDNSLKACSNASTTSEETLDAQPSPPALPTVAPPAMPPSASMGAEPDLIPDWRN
Test: pull-down

binding result: binds
B1: His-tagged DaPKC (enzyme, Drosophila, UniProt A1Z9X0 1-606, looked up)
chain: MQKMPSQILNDGSSVSLNSASMNMANTPNSITVKTAYNGQIIITTINKNISYEELCYEIRNICRFPLDQPFTIKWVDEENDPCTISTKMELDEAIRLYEMNFDSQLVIHVFPNVPQAPGLSCDGEDRSIYRRGARRWRKLYRVNGHIFQAKRFNRRAFCAYCQDRIWGLGRQGFKCIQCKLLVHKKCHKLVQKHCTDQPEPLVKERAEESSDPIPVPLPPLPYEAMSGGAEACETHDHAHIVAPPPPEDPLEPGTQRQYSLNDFELIRVIGRGSYAKVLMVELRRTRRIYAMKVIKKALVTDDEDIDWVQTEKHVFETASNHPFLVGLHSCFQTPSRLFFVIEFVRGGDLMYHMQRQRRLPEEHARFYAAEISLALNFLHEKGIIYRDLKLDNVLLDHEGHIKLTDYGMCKEGIRPGDTTSTFCGTPNYIAPEILRGEDYGFSVDWWALGVLLYEMLAGRSPFDLAGASENPDQNTEDYLFQVILEKTIRIPRSLSVRAASVLKGFLNKNPADRLGCHRESAFMDIVSHPFFKNMDWELLERKQVTPPFKPRLDSDRDLANFPPEFTGEAVQLTPDDDHVIDNIDQSEFEGFEYVNPLLMSLEDCV

— article PMC2172211 (The Journal of Cell Biology, 2004)
